From patent US20250388684A1 (published 2025)

Legend:
[1] = target: T1, human CCR8 (C-C chemokine receptor type 8) (human, UniProt P51685 1-355); assay: FACS cell binding; Control
[2] = target: T1, human CCR8 (C-C chemokine receptor type …); assay: FACS cell binding; human plasma 37°C 14 Day
[3] = target: T1, human CCR8 (C-C chemokine receptor type …); assay: FACS cell binding; human plasma 37°C 7 Day

T1 sequence (P51685 whole entry): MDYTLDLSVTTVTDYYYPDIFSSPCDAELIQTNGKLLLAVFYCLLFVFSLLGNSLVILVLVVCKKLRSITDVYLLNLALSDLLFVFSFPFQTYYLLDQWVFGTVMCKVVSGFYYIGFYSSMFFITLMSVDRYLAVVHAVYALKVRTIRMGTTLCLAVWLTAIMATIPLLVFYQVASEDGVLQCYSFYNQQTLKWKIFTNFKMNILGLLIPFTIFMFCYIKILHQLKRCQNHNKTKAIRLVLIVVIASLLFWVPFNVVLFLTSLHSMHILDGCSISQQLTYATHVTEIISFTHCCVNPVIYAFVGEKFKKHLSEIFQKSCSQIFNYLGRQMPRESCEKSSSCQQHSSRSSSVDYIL

EC50 [1]: 0.035 µg/mL
EC50 [2]: 0.039 µg/mL
EC50 [3]: 0.0425 µg/mL
B1: 13F3H6-hz-eADCC (13F3H6-hz with ADCC-enhanced IgG1 Fc) (antibody)
heavy: EVQLVESGGGLVQPGESLRLSCAASGFTFNAYAMNWVRQAPGQGLEWVARIRTKSNNYATYYADSVKGRFTISRDDSKNTLYLEMNSLRAEDTAVYYCVRHKKVREGYAMDYWGQGTLVTVSSASTKGPSVFPLAPSSKSTSGGTAALGCLVKDYFPEPVTVSWNSGALTSGVHTFPAVLQSSGLYSLSSVVTVPSSSLGTQTYICNVNHKPSNTKVDKKVEPKSCDKTHTCPPCPAPELVGGPSVFLLPPKPKDTLMISRTPEVTCVVVDVSHEDPEVKFNWYVDGVEVHNAKTKPPEEQYNSTLRVVSVLTVLHQDWLNGKEYKCKVSNKALPAPIEKTISKAKGQPREPQVYTLPPSREEMTKNQVSLTCLVKGFYPSDIAVEWESNGQPENNYKTTPLVLDSDGSFFLYSKLTVDKSRWQQGNVFSCSVMHEALHNHYTQKSLSLSPGK
light: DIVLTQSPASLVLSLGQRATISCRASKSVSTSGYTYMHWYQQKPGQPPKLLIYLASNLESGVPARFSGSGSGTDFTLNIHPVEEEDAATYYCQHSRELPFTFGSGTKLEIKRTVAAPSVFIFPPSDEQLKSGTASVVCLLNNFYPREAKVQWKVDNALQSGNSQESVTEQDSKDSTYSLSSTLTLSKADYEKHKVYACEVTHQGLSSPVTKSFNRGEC
